Source: patent US20150344570A1 (published 2015)

T1: FcγRIIa R (human, UniProt P12318 34-217)
T1 construct: extracellular domain; also called FcgRIIa R type; 2aR; not shown: His tag at the C terminus
T1 sequence (looked up): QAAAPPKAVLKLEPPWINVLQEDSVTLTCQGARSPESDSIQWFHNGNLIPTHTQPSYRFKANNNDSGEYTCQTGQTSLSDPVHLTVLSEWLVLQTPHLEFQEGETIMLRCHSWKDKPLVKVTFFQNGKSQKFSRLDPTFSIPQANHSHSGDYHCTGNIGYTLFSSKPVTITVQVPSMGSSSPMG

T2: FcγRIIb (human, UniProt P31994 43-217)
T2 construct: extracellular domain; also called FcgRIIb; 2b; not shown: His tag at the C terminus
T2 sequence (looked up): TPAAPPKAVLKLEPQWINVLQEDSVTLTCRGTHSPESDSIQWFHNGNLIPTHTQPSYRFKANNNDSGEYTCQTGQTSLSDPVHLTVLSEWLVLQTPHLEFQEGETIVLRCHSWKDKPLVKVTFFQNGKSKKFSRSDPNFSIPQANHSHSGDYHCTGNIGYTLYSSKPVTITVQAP

T3: FcγRIIb extracellular domain with C-terminal His tag (human, UniProt P31994 43-217)
T3 construct: extracellular domain; also called FcgRIIb; 2b; not shown: His tag at the C terminus
T3 sequence (looked up): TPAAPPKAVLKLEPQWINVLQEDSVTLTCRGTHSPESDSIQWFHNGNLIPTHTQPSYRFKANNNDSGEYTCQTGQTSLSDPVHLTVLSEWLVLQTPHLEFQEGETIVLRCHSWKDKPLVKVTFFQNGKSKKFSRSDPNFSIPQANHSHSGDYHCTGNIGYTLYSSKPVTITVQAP


What was measured:
FcγRIIa R [1] = biological target: T1, FcγRIIa R; test: SPR; He/Con_2aR divided by He/Con_2b (FcγRIIa R over FcγRIIb)
FcγRIIa R [2] = biological target: T1, FcγRIIa R; test: SPR, relative to GpH7-A5/GpH7-B3/GpL16-k0
FcγRIIb = biological target: T2, FcγRIIb; test: SPR, relative to GpH7-A5/GpH7-B3/GpL16-k0
[3] = biological target: T4, FcγRIIIa extracellular domain with C-terminal His tag (human, UniProt P08637 17-208); test: SPR (Biacore); He/Con_3a divided by He/Con_2b (FcγRIIb)
T4 construct: extracellular domain; also called FcgRIIIa; 3a; not shown: His tag at the C terminus
T4 sequence (P08637 17-208): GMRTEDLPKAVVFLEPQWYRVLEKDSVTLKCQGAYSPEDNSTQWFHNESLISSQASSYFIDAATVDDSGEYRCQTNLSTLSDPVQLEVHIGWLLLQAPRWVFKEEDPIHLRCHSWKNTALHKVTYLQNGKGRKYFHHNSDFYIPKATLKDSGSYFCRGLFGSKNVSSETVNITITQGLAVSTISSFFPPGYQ

[4] = biological target: T3, FcγRIIb extracellular domain with …; test: SPR (Biacore), FcγR as analyte over captured antibody; GpH7-A5/GpH7-B3/GpL16-k0 = 100
Description: (§1) The heterodimerized antibodies He Abs in which one of the H chains was introduced with an alteration were assayed for their binding activities to each activating FcγR and inhibitory FcγR according to the method described in Example 4. […] The activating FcγRs in FIGS. 26, 27, 28, and 29 are FcγRIa, FcγRIIa (R), FcγRIIa (H), and FcγRIIIa, respectively.
(§2) Analysis of interaction between objective antibody and the FcγR was carried out using Biacore T100 (GE Healthcare). HBS-EP+ (GE Healthcare) was used as the running buffer, and the measurement temperature was set to 25° C. Chips produced by immobilizing the antigen peptide by the amine coupling method to a Series S Sencor Chip CM5 (GE Healthcare), or alternatively, chips produced by allowing preliminarily biotinylated antigen peptides to interact with and immobilize onto a Series S Sensor Chip SA (certified) (GE Healthcare) were used. Antibodies of interest were captured onto an antigen peptide-immobilized chip, and allowed to interact to each FcγR diluted with running buffer. To regenerate and repeatedly use the chip, the antibodies captured on the chip were washed off by reacting 10 mM glycine-HCl, pH 1.5.

[5] = biological target: T4, FcγRIIIa extracellular domain with …; test: as above
Description: as §1, §2

Binder | He_2aR/2b (FcγRIIa R [1]) [ratio] | He/Con_2aR (FcγRIIa R [2]) [control = 100] | He/Con_2b (FcγRIIb) [control = 100] | He_3a/2b (IIIa/IIb) [3] [ratio] | He/Con_2b [4] | He/Con_3a [5]
GpH7-A5/GpH7-B3 variant S267_14T/GpL16-k0 (antibody, human IgG1, kappa, Heterodimerized anti-glypican-3 IgG1; mutation in the GpH7-B3 chain only; also called He Ab) heavy 1: not shown heavy 2: not shown light: DIVMTQSPLSLPVTPGEPASISCQASESLVHSNRNTYLHWYLQKPGQSPQLLIYKVSNRFSGVPDRFSGSGSGTDFTLKISRVEAEDVGVYYCSQNTHVPPTFGQGTKVEIERTVAAPSVFIFPPSDEQLKSGTASVVCLLNNFYPREAKVQWKVDNALQSGNSQESVTEQDSKDSTYSLSSTLTLSKADYEKHKVYACEVTHQGLSSPVTKSFNRGEC | 0.78 | 81.9 | 104 |  |  | 
GpH7-A5/GpH7-B3 variant N325_01G/GpL16-k0 (antibody, human IgG1, kappa, Heterodimerized IgG1 antibody; alteration in the GpH7-B3 chain only; also called He Ab) heavy 1: not shown heavy 2: not shown light: DIVMTQSPLSLPVTPGEPASISCQASESLVHSNRNTYLHWYLQKPGQSPQLLIYKVSNRFSGVPDRFSGSGSGTDFTLKISRVEAEDVGVYYCSQNTHVPPTFGQGTKVEIERTVAAPSVFIFPPSDEQLKSGTASVVCLLNNFYPREAKVQWKVDNALQSGNSQESVTEQDSKDSTYSLSSTLTLSKADYEKHKVYACEVTHQGLSSPVTKSFNRGEC |  |  |  | 0.28 | 101 % of control | 28 % of control
GpH7-A5/GpH7-B3 variant V266_04F/GpL16-k0 (antibody, human IgG1, kappa, Heterodimerized anti-glypican-3 IgG1; mutation in the GpH7-B3 chain only; also called He Ab) heavy 1: not shown heavy 2: not shown light: DIVMTQSPLSLPVTPGEPASISCQASESLVHSNRNTYLHWYLQKPGQSPQLLIYKVSNRFSGVPDRFSGSGSGTDFTLKISRVEAEDVGVYYCSQNTHVPPTFGQGTKVEIERTVAAPSVFIFPPSDEQLKSGTASVVCLLNNFYPREAKVQWKVDNALQSGNSQESVTEQDSKDSTYSLSSTLTLSKADYEKHKVYACEVTHQGLSSPVTKSFNRGEC | 0.77 | 44.4 | 57.6 |  |  | 
GpH7-A5/GpH7-B3 variant S267_16H/GpL16-k0 (antibody, human IgG1, kappa, Heterodimerized anti-glypican-3 IgG1; mutation in the GpH7-B3 chain only; also called He Ab) heavy 1: not shown heavy 2: not shown light: DIVMTQSPLSLPVTPGEPASISCQASESLVHSNRNTYLHWYLQKPGQSPQLLIYKVSNRFSGVPDRFSGSGSGTDFTLKISRVEAEDVGVYYCSQNTHVPPTFGQGTKVEIERTVAAPSVFIFPPSDEQLKSGTASVVCLLNNFYPREAKVQWKVDNALQSGNSQESVTEQDSKDSTYSLSSTLTLSKADYEKHKVYACEVTHQGLSSPVTKSFNRGEC | 0.77 | 50.6 | 65.9 |  |  | 
GpH7-A5/GpH7-B3 variant Y300_10E/GpL16-k0 (antibody, human IgG1, kappa, Heterodimerized anti-glypican-3 IgG1; mutation in the GpH7-B3 chain only; also called He Ab) heavy 1: not shown heavy 2: not shown light: DIVMTQSPLSLPVTPGEPASISCQASESLVHSNRNTYLHWYLQKPGQSPQLLIYKVSNRFSGVPDRFSGSGSGTDFTLKISRVEAEDVGVYYCSQNTHVPPTFGQGTKVEIERTVAAPSVFIFPPSDEQLKSGTASVVCLLNNFYPREAKVQWKVDNALQSGNSQESVTEQDSKDSTYSLSSTLTLSKADYEKHKVYACEVTHQGLSSPVTKSFNRGEC | 0.8 | 107 | 134 |  |  | 
GpH7-A5/GpH7-B3 variant A327_01G/GpL16-k0 (antibody, human IgG1, kappa, Heterodimerized IgG1 antibody; alteration in the GpH7-B3 chain only; also called He Ab) heavy 1: not shown heavy 2: not shown light: DIVMTQSPLSLPVTPGEPASISCQASESLVHSNRNTYLHWYLQKPGQSPQLLIYKVSNRFSGVPDRFSGSGSGTDFTLKISRVEAEDVGVYYCSQNTHVPPTFGQGTKVEIERTVAAPSVFIFPPSDEQLKSGTASVVCLLNNFYPREAKVQWKVDNALQSGNSQESVTEQDSKDSTYSLSSTLTLSKADYEKHKVYACEVTHQGLSSPVTKSFNRGEC |  |  |  | 0.63 | 116 % of control | 72.4 % of control
GpH7-A5/GpH7-B3 variant V266_05P/GpL16-k0 (antibody, human IgG1, kappa, Heterodimerized anti-glypican-3 IgG1; mutation in the GpH7-B3 chain only; also called He Ab) heavy 1: not shown heavy 2: not shown light: DIVMTQSPLSLPVTPGEPASISCQASESLVHSNRNTYLHWYLQKPGQSPQLLIYKVSNRFSGVPDRFSGSGSGTDFTLKISRVEAEDVGVYYCSQNTHVPPTFGQGTKVEIERTVAAPSVFIFPPSDEQLKSGTASVVCLLNNFYPREAKVQWKVDNALQSGNSQESVTEQDSKDSTYSLSSTLTLSKADYEKHKVYACEVTHQGLSSPVTKSFNRGEC | -8.33 | -2.9 | 0.4 |  |  | 
GpH7-A5/GpH7-B3 variant V266_08L/GpL16-k0 (antibody, human IgG1, kappa, Heterodimerized anti-glypican-3 IgG1; mutation in the GpH7-B3 chain only; also called He Ab) heavy 1: not shown heavy 2: not shown light: DIVMTQSPLSLPVTPGEPASISCQASESLVHSNRNTYLHWYLQKPGQSPQLLIYKVSNRFSGVPDRFSGSGSGTDFTLKISRVEAEDVGVYYCSQNTHVPPTFGQGTKVEIERTVAAPSVFIFPPSDEQLKSGTASVVCLLNNFYPREAKVQWKVDNALQSGNSQESVTEQDSKDSTYSLSSTLTLSKADYEKHKVYACEVTHQGLSSPVTKSFNRGEC | 0.6 | 142 | 236 |  |  | 
GpH7-A5/GpH7-B3 variant V266_07I/GpL16-k0 (antibody, human IgG1, kappa, Heterodimerized anti-glypican-3 IgG1; mutation in the GpH7-B3 chain only; also called He Ab) heavy 1: not shown heavy 2: not shown light: DIVMTQSPLSLPVTPGEPASISCQASESLVHSNRNTYLHWYLQKPGQSPQLLIYKVSNRFSGVPDRFSGSGSGTDFTLKISRVEAEDVGVYYCSQNTHVPPTFGQGTKVEIERTVAAPSVFIFPPSDEQLKSGTASVVCLLNNFYPREAKVQWKVDNALQSGNSQESVTEQDSKDSTYSLSSTLTLSKADYEKHKVYACEVTHQGLSSPVTKSFNRGEC | 0.79 | 120 | 152 |  |  | 
GpH7-A5/GpH7-B3 variant A327_03V/GpL16-k0 (antibody, human IgG1, kappa, Heterodimerized IgG1 antibody; alteration in the GpH7-B3 chain only; also called He Ab) heavy 1: not shown heavy 2: not shown light: DIVMTQSPLSLPVTPGEPASISCQASESLVHSNRNTYLHWYLQKPGQSPQLLIYKVSNRFSGVPDRFSGSGSGTDFTLKISRVEAEDVGVYYCSQNTHVPPTFGQGTKVEIERTVAAPSVFIFPPSDEQLKSGTASVVCLLNNFYPREAKVQWKVDNALQSGNSQESVTEQDSKDSTYSLSSTLTLSKADYEKHKVYACEVTHQGLSSPVTKSFNRGEC |  |  |  | 0.48 | 94.7 % of control | 45.8 % of control
GpH7-A5/GpH7-B3 variant S267_19Q/GpL16-k0 (antibody, human IgG1, kappa, Heterodimerized anti-glypican-3 IgG1; mutation in the GpH7-B3 chain only; also called He Ab) heavy 1: not shown heavy 2: not shown light: DIVMTQSPLSLPVTPGEPASISCQASESLVHSNRNTYLHWYLQKPGQSPQLLIYKVSNRFSGVPDRFSGSGSGTDFTLKISRVEAEDVGVYYCSQNTHVPPTFGQGTKVEIERTVAAPSVFIFPPSDEQLKSGTASVVCLLNNFYPREAKVQWKVDNALQSGNSQESVTEQDSKDSTYSLSSTLTLSKADYEKHKVYACEVTHQGLSSPVTKSFNRGEC | 0.62 | 135 | 218 |  |  | 
GpH7-A5/GpH7-B3 variant V266_06M/GpL16-k0 (antibody, human IgG1, kappa, Heterodimerized anti-glypican-3 IgG1; mutation in the GpH7-B3 chain only; also called He Ab) heavy 1: not shown heavy 2: not shown light: DIVMTQSPLSLPVTPGEPASISCQASESLVHSNRNTYLHWYLQKPGQSPQLLIYKVSNRFSGVPDRFSGSGSGTDFTLKISRVEAEDVGVYYCSQNTHVPPTFGQGTKVEIERTVAAPSVFIFPPSDEQLKSGTASVVCLLNNFYPREAKVQWKVDNALQSGNSQESVTEQDSKDSTYSLSSTLTLSKADYEKHKVYACEVTHQGLSSPVTKSFNRGEC | 0.6 | 150 | 251 |  |  | 
GpH7-A5/GpH7-B3 variant V266_11K/GpL16-k0 (antibody, human IgG1, kappa, Heterodimerized anti-glypican-3 IgG1; mutation in the GpH7-B3 chain only; also called He Ab) heavy 1: not shown heavy 2: not shown light: DIVMTQSPLSLPVTPGEPASISCQASESLVHSNRNTYLHWYLQKPGQSPQLLIYKVSNRFSGVPDRFSGSGSGTDFTLKISRVEAEDVGVYYCSQNTHVPPTFGQGTKVEIERTVAAPSVFIFPPSDEQLKSGTASVVCLLNNFYPREAKVQWKVDNALQSGNSQESVTEQDSKDSTYSLSSTLTLSKADYEKHKVYACEVTHQGLSSPVTKSFNRGEC | -5.55 | -5.6 | 1 |  |  | 
